Source: EP4671269A1 (Akeso Biopharma Co., Ltd., dated 2025)

Columns and labels:
human TIGIT-mFc [1] = biological target: T1, human TIGIT-mFc (human; mouse, UniProt Q495A1 22-141, limits assumed); assay: competitive ELISA vs CD155-hFc-Biotin, TIGIT-mFc coated
T1 construct: not shown: Fc protein fragment of mouse IgG
T1 sequence (looked up): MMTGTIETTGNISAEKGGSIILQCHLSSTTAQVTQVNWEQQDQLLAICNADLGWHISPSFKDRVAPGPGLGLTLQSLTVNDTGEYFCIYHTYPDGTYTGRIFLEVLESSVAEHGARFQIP

human TIGIT-mFc [2] = biological target: T1, human TIGIT-mFc; assay: indirect ELISA, TIGIT-mFc captured on plate
[3] = biological target: T2, TIGIT on the cell membrane (293T-TIGIT, Jurkat-TIGIT-NFAT-Luc cells) (human, UniProt Q495A1 22-244); assay: FACS, 293T-TIGIT cells
T2 construct: whole, on cells; also called cell membrane surface antigen TIGIT
T2 sequence (looked up): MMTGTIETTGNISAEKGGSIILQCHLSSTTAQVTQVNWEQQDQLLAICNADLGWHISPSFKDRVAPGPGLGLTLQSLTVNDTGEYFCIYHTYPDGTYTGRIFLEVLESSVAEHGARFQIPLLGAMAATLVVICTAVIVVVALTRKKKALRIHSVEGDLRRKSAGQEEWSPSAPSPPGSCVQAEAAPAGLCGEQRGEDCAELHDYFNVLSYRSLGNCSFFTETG

[4] = biological target: T2, TIGIT on the cell membrane (293T-TIGIT, …); assay: competitive FACS vs CD112-mFc, 293T-TIGIT cells
[5] = biological target: T2, TIGIT on the cell membrane (293T-TIGIT, …); assay: competitive FACS vs CD155-mFc, 293T-TIGIT cells
TGF-β1 [6] = biological target: T3, TGF-β1 (human, UniProt P01137 279-390); assay: indirect ELISA, TGF-β1 coated
T3 construct: also called human TGF-β1; TGF-β1 protein

TGF-β1 [7] = biological target: T3, TGF-β1; assay: competitive ELISA vs TGF-βRII-His-Biotin, TGF-β1 coated
TGF-β1 [8] = biological target: T3, TGF-β1; assay: indirect ELISA, TGF-β1 coated; remark: listed apart in the source
human TIGIT-hFc = biological target: T4, human TIGIT-hFc (human, UniProt Q495A1 22-141, limits assumed); assay: indirect ELISA, hybridoma screening
T4 construct: Screening antigen of the hybridoma ELISA; not shown: Fc protein fragment of human IgG
T4 sequence (looked up): T1 sequence (looked up)

B1: RG6058(hG4) (antibody, V domains shown)
VH: EVQLQQSGPGLVKPSQTLSLTCAISGDSVSSNSAAWNWIRQSPSRGLEWLGKTYYRFKWYSDYAVSVKGRITINPDTSKNQFSLQLNSVTPEDTAVFYCTRESTTYDLLAGPFDYWGQGTLVTVSS
VL: not shown
notes: Positive control anti-TIGIT antibody from CN108290946A; also called RG6058(hG4WT)
For B1, the EC50 (human TIGIT-mFc [1]) was 1.68 nM, the EC50 (human TIGIT-mFc [2]) was 0.055 nM and the EC50 [3] was 1.61 nM.

B2: Tiragolumab (antibody, human IgG1, kappa, V domains shown)
VH: B1 VH
VL: not shown
notes: Positive control anti-TIGIT antibody; also called RG6058(hG1WT)
With B2 the EC50 [4] was 0.837 nM and the EC50 [5] was 1.28 nM.

B3: 26B12H2L2(hG4DM) (antibody, human IgG4 S228P, kappa, F234A L235A)
heavy: not shown
light: DIQMTQSPSSLSASVGDRVTITCRSSQHVSTALAWYQQKPGKSPKLLIYSASSRYSGVPDRFSGSGSGTDFTFTISSLQPEDFATYYCQQHYITPWTFGGGTKLEIKRTVAAPSVFIFPPSDEQLKSGTASVVCLLNNFYPREAKVQWKVDNALQSGNSQESVTEQDSKDSTYSLSSTLTLSKADYEKHKVYACEVTHQGLSSPVTKSFNRGEC
notes: Humanized anti-TIGIT antibody, IgG4 with F234A and L235A (EU numbering)
Work on B3 yielded an EC50 (human TIGIT-mFc [1]) of 1.42 nM.

B4: TGF-βRII-mFc (Fc fusion, UniProt P37173 24-159, looked up)
chain: IPPHVQKSVNNDMIVTDNNGAVKFPQLCKFCDVRFSTCDNQKSCMSNCSITSICEKPQEVCVAVWRKNDENITLETVCHDPKLPYHDFILEDAASPKCIMKEKKKPGETFFMCSCSSDECNDNIIFSEEYNTSNPD
notes: also called TGF-βR2-mFc; not shown: Fc protein fragment of mouse IgG
For B4, the EC50 (TGF-β1 [6]) was 0.271 nM, the EC50 (TGF-β1 [7]) was 6.47 nM and the EC50 (TGF-β1 [8]) was 0.356 nM.

B5: 26B12 (antibody, V domains shown)
VH: EVQLQESGPGLVKPSQSLSLTCTVTGHSFTSDYAWNWIRQFPGNRLEWMGYISYSDSTNYNPSLKSRISITRDTSKNQFFLQMNSVTTEDTATYYCARLDYGNYGGAMDYWGQGTSVTVSS
VL: DIVLTQSHEFMSTSLRDRVSITCKSSQHVSTAVAWYQQKPGQSPKLLIYSASYRYTGVPDRFTGSGSGTDFTFTISSVKAEDLAVYYCQQHYITPWTFGGGTKLEIK
notes: Murine hybridoma antibody; also called anti-TIGIT antibody 26B12; monoclonal antibody secreted by hybridoma cell line LT019
B5: binds (human TIGIT-hFc).
